Data published in patent US20250147051A1 (GTINVENT, published 2025).
Where two headings read alike, the source gives them in different places.

B1: S1G10 scAb (scFv)
scFv: QVQLQESGPSLVKPSQTLSLTCTVSGFSLTSNSVGWVRQAPGKAPEWVAGIDTDGEEGYNPALNSRLSITRDTSKSQVSLSLSSVTSEDTAVYYCGRSYRADGLAYGYVQAIDYWGPGLLVTVSSEGKSSGASGESKVDDQAVLTQPSSMSGSLGQRVSITCSGSFIGISSVGWFQQLPGSGLRTIIVASDGRPSGVPDRFSMSKSGNTATLTISSLQAEDEADYFCGSSDRTQYTGVFGSGTRLTVLG
notes: scAb (scFv-HuCk-His)
B2: S1G2 scAb (scFv)
scFv: QVQLQESGPSLVKPSQTLSLTCTVSGFSLTSNSVGWVRQAPGKAPEWVAGIDTDGEEGYNPALNSRLSITRDTSKSQVSLSLSSVTSEDTAVYYCGRSYRADGLAYGYVQAIDYWGPGLLVTVSSEGKSSGASGESKVDDQAVVTQPSSVSGSLGQRVSITCSGSFIGISSVGWFQQLPGSGLRTIIVASDGRPSGVPDRFSMSKSGNTATLTISSLQAEDEADYFCGSSDRTPYTGVFGSGTRLTVLG
notes: scAb (scFv-HuCk-His)
B3: CA9 scAb (scFv)
scFv: QVQLQESGPSLVKPSQTLSLTCTVSGFSLTSNSVGWVRQAPGKAPEWVAGIDTDGEEGYNPALNSRLSITRDTSKSQVSLSLSSVTSEDTAVYYCGRSYRSDGLAYGYVQAIDYWGPGLLVTVSSEGKSSGASGESKVDDQAVLTQPASVSGSLGQRVSITCSGSFIGISSVGWFQQLPGSGLRTIIVASDGRPSGVPDRFSMSKSGNTATLTISSLQAEDEADYFCGSSDRTQYTGVFGSGTRLTVLG
notes: scAb (scFv-HuCk-His)
B4: CB7 mAb (antibody, mouse IgG2a, V domains shown)
VH: QVQLQESGPSLVKPSQTLSLTCTVSGFSLTNYRVGWVRQAPGKALEWVSNIRSGGTTWYNPALKSRLSITADTSKSQVSLSLSSVTTEDTAVYYCARDSSGDLYAYDYWGPGLLVTVSS
VL: QAVLTQPSSVSRSLGQSVSMTCSGSSSNVGYGNYMAWFQQVPGSAPKLLIYGATSRASGVPDRFSGSRSGNTATLTISSLQAEDEADYYCASYDSTSGGVFGSGTRLTVLG
notes: also called CB7 antibody
B5: CA4 scAb (scFv)
scFv: QVQLQESGPSLVKPSQTLSLTCTVSGFSLTSYSVYWVRQAPGQALEWISIMYASGRVDYNPALKSRLSITRDTSKSQFSLSLSSVTTEDTAVYYCTRGIENWGPGLLVTVSSEGKSSGASGESKVDDDIQVTQSPSSLSASLTERVSITCRTSQSVNNYLSWYQQKPGQAPKLLIYYATRLYTDVPSRFSGSGSGTDYTLTITSLEADDTATYYCLQYDSTPLAFGGGTNVEIK
notes: scAb (scFv-HuCk-His)
B6: CE3 scAb (scFv)
scFv: QVRLQESGPSLVKPSQTLSVTCTVSGFSLISNAVGWVRQAPGKVPESLAGCSSDGKCYYNSALKSRLDITRDTSKNQISLSLSSVTTDDAAVYYCTRGYYPVYGYDYLGTIDYWGPGLLVTVSSEGKSSGASGESKVDDQAVLTQPSSVSGSLGQRVSITCSGSSSNVGRNDVAWFQQLPGSGLRTIIYGTTSRPSGIPDRFSGSKSGVTATLTIDSLQAEDEADYFCASGDSSAINDIFGSGTRLTVLG
notes: scAb (scFv-HuCk-His)
B7: CB3 scAb (scFv)
scFv: QVQLQESGPSLVKPSQTLSLTCTVSGFSLSSVAVNWVRQAPGKVPEWLGGIISNGGTGYNPALKSRLSITRDTSKSQVSLALTHVTTEDTAVYYCGRGVEWEGSMDYLGPGLLVTVSSEGKSSGSGSETKVDDQSVLTQPSSVSGFLGQRVTITCSGSSSNVGAGSYVGWYQQVPGSGLRILIYGATKRASGLPDRFSGSRSGNTATLTISSLQAEDEADYYCVSYQTDFTLVFGSGTRLTVLG
notes: scAb (scFv-HuCk-His)
B8: CC7 mAb (antibody, mouse IgG2a, V domains shown)
VH: QVQLQESGPSLVKPSQTLSLTCTVSGFSLTSNAVIWVRQAPGKAPEWVALIDVDGDAAYDPALKSRLSITRDTSKSQVSLSLRSVTTEDTAVYYCARDYGSWGYVSDIDYWGPGLLVTVSS
VL: RVVRTQPSSVSGSLGQRVSITCSGSYITGSSVGWFQQVPGSGLKTVIYDNNDRPSGVPDRFSGSKSGDTATLTISSLQAEDEADYYCASYDTSNIGLFGSGTRLTVLG
notes: also called CC7 antibody
B9: CB7 scAb (scFv)
scFv: QVQLQESGPSLVKPSQTLSLTCTVSGFSLTNYRVGWVRQAPGKALEWVSNIRSGGTTWYNPALKSRLSITADTSKSQVSLSLSSVTTEDTAVYYCARDSSGDLYAYDYWGPGLLVTVSSEGKSSGASGESKVDDQAVLTQPSSVSRSLGQSVSMTCSGSSSNVGYGNYMAWFQQVPGSAPKLLIYGATSRASGVPDRFSGSRSGNTATLTISSLQAEDEADYYCASYDSTSGGVFGSGTRLTVLG
notes: scAb (scFv-HuCk-His)
B10: 412E10 scAb (scFv)
scFv: QVQLQESGPSLVKPSQTLSLTCTVSGFSVISDSVAWVRQAPGKVPEWLGASGSSGNKYYNPALKSRLSITRDTSKSQVSLSLSSVTTEDTAVYYCARGIIAGVDVWGRGLLVTVSSEGKSSGASGESKVDDQAVLTQPSSVSGSLGQRVSITCSGSSSNVGYGNYVGWYQQVPGSAPKLLIYGTAIRASGVPDRFSGSRSGDTATLTITSLQAEDEADYYCASYQSNYAFFGSGTRLTVLG
notes: scAb (scFv-HuCk-His)
B11: CC7 scAb (scFv)
scFv: QVQLQESGPSLVKPSQTLSLTCTVSGFSLTSNAVIWVRQAPGKAPEWVALIDVDGDAAYDPALKSRLSITRDTSKSQVSLSLRSVTTEDTAVYYCARDYGSWGYVSDIDYWGPGLLVTVSSEGKSSGASGESKVDDRVVRTQPSSVSGSLGQRVSITCSGSYITGSSVGWFQQVPGSGLKTVIYDNNDRPSGVPDRFSGSKSGDTATLTISSLQAEDEADYYCASYDTSNIGLFGSGTRLTVLG
notes: scAb (scFv-HuCk-His)
B12: 412G11 (scFv)
scAb: QVRLQESGPSLVKPSQTLSLTCTVSGFSLTSYALGWVRQAPGRAPEWIGNIWRGGRIEYNPALKSRLSITRDTSKSQVSLSLSSVTTEDTAVYYCSRSGGDWGPGLLVTVSSEGKSSGASGESKVDDQAVLTQPSSVSGSLGQRVSITCSGSSSNVGYGNYVGWYQQVPGSAPKLLIYGATSRASGVPDRFSGSRSENTATLTISSLQAEDEADYYCASYDRSESVVFGSGTRLTVLG

Tests used:
[1] = molecular target: T1, full length human tau protein 2N4R (hT40) (human, UniProt P10636 1-758); test: sandwich ELISA, S1D12 mAb capture, colourimetric detection
T1 construct: recombinant protein; also called T441
Procedure: (§1) Full length tau (hT40), at 1 μg/ml starting concentration was added to designated wells and double diluted across rest of the plates and left to incubate at R/T for 1 h. A series of detection scAbs with varying epitope recognition properties were added at 10 μg/ml to designated wells (FIG. 22). For colourimetric detection HRP conjugated anti-HuCk secondary antibody was used and the resulting immunoreaction was developed and absorbance at 450 nm measured as described previously. Cut-off point for a positive binding event was an absorbance value of 0.3 following background subtraction. In order to enhance the assay sensitivity, a chemiluminescent detection method was adopted where 50 μL SuperSignal ELISA Femto Substrate (Thermo Scientific) was added to each well following incubation with anti-HuCK HRP antibody and subsequent washing. The luminescence was read using Clariostar Plus microplate reader. A further modification to this protocol was done where various detection scAbs were directly conjugated with HRP and detected using chemiluminescent protocol as before.

[2] = molecular target: T1, full length human tau protein 2N4R …; test: sandwich ELISA, S1D12 mAb capture, chemiluminescence detection
Procedure: as §1

DGAE + LMT Agg [3] = molecular target: T2, DGAE + LMT Agg; test: sandwich ELISA, 423 mAb capture, dGAE species titrated, scAb detection at 10 ug/ml [D00039 Figure 34F]
T2 construct: also called dGAE agitated in the presence of LMTM (Total, Supernatant, Pellet)
Procedure: (§2) For preparing the aggregates, 10 μl 10 mM DTT was added to 1000 μl 100 μM dGAE and agitated with/without LMTM (1:5 ratio) at 700 rpm for 24 h at 37° C. Following overnight agitation, one third of each sample was kept aside as ‘total’ and the rest was spun down at 16000×g for 30 min and separated into ‘supernatant’ and ‘pellet’. The pellet was then resuspended in half the original volume for further experiments. […] Doubling dilutions of dGAE aggregate ‘total’, ‘supernatant’ and ‘pellet’ samples at 10 μg/ml starting concentration were added to designated wells in doubling dilutions in 1×PBS. dGAE monomer (non-aggregated) was included as assay control. All double dilutions were done in final volumes of 100 μl. This was left to incubate on lab bench for 1 h followed by the addition of test scAbs at 10 μg/ml.

[4] = molecular target: T3, mouse tau (Isoform Tau-A) (mouse, UniProt P10637 2-733); test: Western blot of brain homogenates
T3 construct: endogenous protein in mouse brain homogenate or plasma; isoform in the samples not determined; also called endogenous mouse tau

[5] = molecular target: T4, human tau 296-390 (Line 1 transgene fragment) (human, UniProt P10636 613-707); test: Western blot of brain homogenates
T4 construct: also called L1 fragment; 10-kDa tau fragment

DGAE + LMT Agg [6] = molecular target: T2, DGAE + LMT Agg; test: sandwich ELISA, 423 mAb capture, dGAE species titrated, scAb detection at 10 ug/ml [D00041 Figure 34O]
Procedure: as §2

[7] = molecular target: T1, full length human tau protein 2N4R …; test: direct ELISA, coated hT40
[8] = molecular target: T1, full length human tau protein 2N4R …; test: direct ELISA, coated hT40; remark: listed apart in the source

T1 sequence (P10636 other isoform, or with tags, fused parts or gaps limits assumed): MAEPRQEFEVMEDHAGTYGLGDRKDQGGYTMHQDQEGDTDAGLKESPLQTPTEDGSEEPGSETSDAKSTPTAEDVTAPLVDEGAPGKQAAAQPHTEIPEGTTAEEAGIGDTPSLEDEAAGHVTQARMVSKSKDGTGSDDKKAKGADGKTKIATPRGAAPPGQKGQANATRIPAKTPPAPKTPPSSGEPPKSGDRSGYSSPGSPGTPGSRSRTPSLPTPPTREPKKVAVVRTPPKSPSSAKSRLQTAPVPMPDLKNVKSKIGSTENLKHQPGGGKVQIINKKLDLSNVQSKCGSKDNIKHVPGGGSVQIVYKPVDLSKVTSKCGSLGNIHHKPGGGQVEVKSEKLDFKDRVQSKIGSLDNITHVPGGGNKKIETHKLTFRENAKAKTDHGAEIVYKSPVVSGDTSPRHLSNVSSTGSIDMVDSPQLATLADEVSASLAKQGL
T4 sequence (P10636 613-707): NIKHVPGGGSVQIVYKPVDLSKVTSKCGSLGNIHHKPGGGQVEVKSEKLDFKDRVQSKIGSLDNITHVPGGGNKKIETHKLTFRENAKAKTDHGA
T2 sequence (fragment, as listed by the source limits assumed): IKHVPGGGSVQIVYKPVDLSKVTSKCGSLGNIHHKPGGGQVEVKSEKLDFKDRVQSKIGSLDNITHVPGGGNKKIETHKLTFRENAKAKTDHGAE
T3 sequence (P10637 other isoform, or with tags, fused parts or gaps limits assumed): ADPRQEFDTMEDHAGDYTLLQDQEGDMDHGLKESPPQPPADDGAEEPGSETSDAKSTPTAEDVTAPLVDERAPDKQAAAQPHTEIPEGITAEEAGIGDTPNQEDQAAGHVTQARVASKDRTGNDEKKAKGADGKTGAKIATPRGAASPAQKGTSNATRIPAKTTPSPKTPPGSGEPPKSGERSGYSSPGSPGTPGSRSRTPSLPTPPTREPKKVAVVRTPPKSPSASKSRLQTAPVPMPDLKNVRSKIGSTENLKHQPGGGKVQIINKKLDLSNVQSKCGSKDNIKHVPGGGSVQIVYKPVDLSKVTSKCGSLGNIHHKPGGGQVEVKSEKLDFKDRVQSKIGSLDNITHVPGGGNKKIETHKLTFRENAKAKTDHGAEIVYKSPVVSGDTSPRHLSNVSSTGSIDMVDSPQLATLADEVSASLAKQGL

Binder | LoD [1] | LoD [2] | also measured
B1 | 2 ng/mL | 0.12 ng/mL | –
B2 | – | 0.12 ng/mL | –
B3 | – | – | binding result (DGAE + LMT Agg [3]): binds
B4 | – | – | binding result [4]: no binding (tested: 20 µg brain protein); binding result [5]: no binding (tested: 20 µg brain protein)
B5 | 6 ng/mL | 0.37 ng/mL | –
B6 | – | – | binding result (DGAE + LMT Agg [6]): binds
B7 | – | – | EC50 (read off the curve) [7]: ~0.1 µg/mL
B8 | – | – | binding result [4]: no binding (tested: 20 µg brain protein); binding result [5]: no binding (tested: 20 µg brain protein)
B9 | 15 ng/mL | 3.33 ng/mL | –
B10 | 20 ng/mL | 0.37 ng/mL | –
B11 | 6 ng/mL | 3.33 ng/mL | –
B12 | – | – | EC50 (read off the curve) [8]: ~6 µg/mL
